Measured values taken from article PMC4911367.

Key:
[1] = molecular target: pyrene labeled rabbit skeletal F-actin (rabbit) (UniProt P68135)
[2] = molecular target: pyrene labeled rabbit skeletal F-actin (rabbit) (UniProt P68135); experiment: stopped-flow pyrene fluorescence; 0.25 uM myosin with 0.25 uM pyrene labeled F-actin (0.25 uM phalloidin) in rigor buffer 0.4 M KCl, 1 mM DTT, 10 mM MOPS pH 7.0, mixed 1:1 with 10-150 uM MgATP; MgATP-induced dissociation, single exponential fit
[3] = molecular target: pyrene labeled rabbit skeletal F-actin (rabbit) (UniProt P68135); experiment: other fluorescence titration; 0.5 uM pyrene labeled F-actin titrated with myosin in 0.05 uM increments to ~2 fold molar excess, rigor conditions; excitation 340 nm, emission 407 nm; quadratic fit; apparent Kd and stoichiometry n
[4] = molecular target: RLC-depleted porcine cardiac (PC) myosin (porcine) (UniProt P79293); experiment: co-sedimentation; ~2.8 uM RLC-depleted PC myosin titrated with 0.1-14 uM human WT or IVS6-1 RLC (molar ratio 0.1-5.0) in 0.4 M KCl, 50 mM MOPS pH 7.0, 2 mM MgCl2, 1 mM DTT, with BSA, 30 min room temperature; myosin precipitated with 13 vol ice-cold water, pellet on SDS-PAGE, RLC/ELC band ratio; apparent Kd
[5] = molecular target: RLC-depleted porcine cardiac (PC) myosin (porcine) (UniProt P79293); experiment: reconstitution of RLC-depleted skinned muscle strips, SDS-PAGE; skinned porcine papillary muscle strips depleted of RLC with CDTA/Triton X-100, incubated with 40 uM RLC-WT or IVS6-1 and 2 mM DTT in pCa 8 solution, then RLC and TnC; washed, SDS-PAGE

| Km (actin) of actin-activated myosin ATPase activity [1] [µM] | Vmax of actin-activated myosin ATPase activity (F-actin 0.1-25 uM, ~1.9 uM myosin, 30°C) [1] [s⁻¹] | k1, MgATP-induced actin-myosin dissociation rate at 10 μM MgATP [2] [s⁻¹] | k1, MgATP-induced actin-myosin dissociation rate at 25 μM MgATP [2] [s⁻¹] | k1, MgATP-induced actin-myosin dissociation rate at 40 μM MgATP [2] [s⁻¹] | k1, MgATP-induced actin-myosin dissociation rate at 60 μM MgATP [2] [s⁻¹] | k1, MgATP-induced actin-myosin dissociation rate at 80 μM MgATP [2] [s⁻¹] | k1, MgATP-induced actin-myosin dissociation rate at 125 μM MgATP [2] [s⁻¹] | k1, MgATP-induced actin-myosin dissociation rate at 150 μM MgATP [2] [s⁻¹] | Kd [3] [nM] | stoichiometry N [3] | Kd [4] [nM] | percent fiber reconstitution [5] [%] | Molecule |
| --- | --- | --- | --- | --- | --- | --- | --- | --- | --- | --- | --- | --- | --- |
| 3.67 | 0.25 | 7.4 | 15.6 | 19.9 | 36 | 50.4 | 70.4 | 88.7 | 4.6 | 0.51 |  |  | porcine cardiac myosin reconstituted with human cardiac RLC WT (from UniProt P79293 1-1935; P10916 1-166) (complex) |
| 3.33 | 0.15 | 5.5 | 14.4 | 21 | 30.5 | 41.4 | 57.5 | 67.8 | 16.7 | 0.59 |  |  | porcine cardiac myosin reconstituted with human cardiac RLC IVS6-1 (from UniProt P79293 1-1935; P10916 1-134) (complex) |
|  |  |  |  |  |  |  |  |  |  |  | 4410 | 100 | human cardiac RLC IVS6-1 (c403-1G>C) splice site mutant protein (from UniProt P10916 1-134) (natural protein) |
| 1.93 | 0.24 | 6.2 | 15.8 | 24.5 | 33.4 | 47.2 | 65.9 | 86.8 | 2.9 | 0.47 |  |  | native porcine cardiac (PC) myosin (from UniProt P79293 1-1935) (complex) |
|  |  |  |  |  |  |  |  |  |  |  | 1420 | 100 | wild-type (WT) human cardiac (ventricular/slow-twitch skeletal) myosin regulatory light chain (natural protein) MAPKKAKKRAGGANSNVFSMFEQTQIQEFKEAFTIMDQNRDGFIDKNDLRDTFAALGRVNVKNEEIDEMIKEAPGPINFTVFLTMFGEKLKGADPEETILNAFKVFDPEGKGVLKADYVREMLTTQAERFSKEEVDQMFAAFPPDVTGNLDYKNLVHIITHGEEKD |
